Test results taken from US20110081661A1, “Modified photoproteins with increased affinity for calcium and enhanced bioluminescence and uses thereof” (Millipore Corporation, priority 2009, published 2011).

T1: GIP Receptor (Homo sapiens, UniProt P48546)
T1 construct: host or cells: HEK293T
T1 sequence (P48546 22-466): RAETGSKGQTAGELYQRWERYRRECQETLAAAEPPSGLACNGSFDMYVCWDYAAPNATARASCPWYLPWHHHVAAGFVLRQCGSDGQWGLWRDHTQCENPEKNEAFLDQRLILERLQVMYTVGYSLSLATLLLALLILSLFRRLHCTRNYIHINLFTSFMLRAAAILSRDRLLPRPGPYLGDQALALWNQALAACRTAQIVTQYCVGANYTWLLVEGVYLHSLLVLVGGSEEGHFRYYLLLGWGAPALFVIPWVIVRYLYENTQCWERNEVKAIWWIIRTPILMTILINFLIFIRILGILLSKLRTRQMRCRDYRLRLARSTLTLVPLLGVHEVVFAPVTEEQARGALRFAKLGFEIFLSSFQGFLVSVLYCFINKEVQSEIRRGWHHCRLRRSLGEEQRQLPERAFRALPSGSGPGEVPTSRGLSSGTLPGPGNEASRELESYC

B1: Mt-clytin K168S: Mitochondrial K168S modified Clytin, SEQ ID NO:22 (protein)
chain: MSVLTPLLLRGLTGSARRLPVPRAKIHSLPPEGKLRPNFDNPKWVNRHKFMFNFLDINGDGKITLDEIVSKASDDICAKLGATPEQTKRHQDAVEAFFKKIGMDYGKEVEFPAFVDGWKELANYDLKLWSQNKKSLIRDWGEAVFDIFDKDGSGSISLDEWKAYGRISGICSSDEDAEKTFKHCDLDNSGSLDVDEMTRQHLGFWYTLDPNADGLYGNFVP
B2: Mt-clytin K168T: Mitochondrial K168T modified Clytin, SEQ ID NO:24 (protein)
chain: MSVLTPLLLRGLTGSARRLPVPRAKIHSLPPEGKLRPNFDNPKWVNRHKFMFNFLDINGDGKITLDEIVSKASDDICAKLGATPEQTKRHQDAVEAFFKKIGMDYGKEVEFPAFVDGWKELANYDLKLWSQNKKSLIRDWGEAVFDIFDKDGSGSISLDEWKAYGRISGICSSDEDAEKTFKHCDLDNSGTLDVDEMTRQHLGFWYTLDPNADGLYGNFVP
B3: Mt-clytin K168G: Mitochondrial K168G modified Clytin, SEQ ID NO:16 (protein)
chain: MSVLTPLLLRGLTGSARRLPVPRAKIHSLPPEGKLRPNFDNPKWVNRHKFMFNFLDINGDGKITLDEIVSKASDDICAKLGATPEQTKRHQDAVEAFFKKIGMDYGKEVEFPAFVDGWKELANYDLKLWSQNKKSLIRDWGEAVFDIFDKDGSGSISLDEWKAYGRISGICSSDEDAEKTFKHCDLDNSGGLDVDEMTRQHLGFWYTLDPNADGLYGNFVP
B4: Mt-clytin K168N: Mitochondrial K168N modified Clytin, SEQ ID NO:18 (protein)
chain: MSVLTPLLLRGLTGSARRLPVPRAKIHSLPPEGKLRPNFDNPKWVNRHKFMFNFLDINGDGKITLDEIVSKASDDICAKLGATPEQTKRHQDAVEAFFKKIGMDYGKEVEFPAFVDGWKELANYDLKLWSQNKKSLIRDWGEAVFDIFDKDGSGSISLDEWKAYGRISGICSSDEDAEKTFKHCDLDNSGNLDVDEMTRQHLGFWYTLDPNADGLYGNFVP
B5: K168T (protein)
chain: MADTASKYAVKLRPNFDNPKWVNRHKFMFNFLDINGDGKITLDEIVSKASDDICAKLGATPEQTKRHQDAVEAFFKKIGMDYGKEVEFPAFVDGWKELANYDLKLWSQNKKSLIRDWGEAVFDIFDKDGSGSISLDEWKAYGRISGICSSDEDAEKTFKHCDLDNSGTLDVDEMTRQHLGFWYTLDPNADGLYGNFVP
B6: K168E (protein)
chain: MADTASKYAVKLRPNFDNPKWVNRHKFMFNFLDINGDGKITLDEIVSKASDDICAKLGATPEQTKRHQDAVEAFFKKIGMDYGKEVEFPAFVDGWKELANYDLKLWSQNKKSLIRDWGEAVFDIFDKDGSGSISLDEWKAYGRISGICSSDEDAEKTFKHCDLDNSGELDVDEMTRQHLGFWYTLDPNADGLYGNFVP
B7: wild-type Clytin (protein, listed as Clytia gregaria)
chain: MADTASKYAVKLRPNFDNPKWVNRHKFMFNFLDINGDGKITLDEIVSKASDDICAKLGATPEQTKRHQDAVEAFFKKIGMDYGKEVEFPAFVDGWKELANYDLKLWSQNKKSLIRDWGEAVFDIFDKDGSGSISLDEWKAYGRISGICSSDEDAEKTFKHCDLDNSGKLDVDEMTRQHLGFWYTLDPNADGLYGNFVP
B8: Cyto-clytin K168E: K168E modified Clytin amino acid sequence, SEQ ID NO:11; cytosolic (protein)
chain: MADTASKYAVKLRPNFDNPKWVNRHKFMFNFLDINGDGKITLDEIVSKASDDICAKLGATPEQTKRHQDAVEAFFKKIGMDYGKEVEFPAFVDGWKELANYDLKLWSQNKKSLIRDWGEAVFDIFDKDGSGSISLDEWKAYGRISGICSSDEDAEKTFKHCDLDNSGELDVDEMTRQHLGFWYTLDPNADGLYGNFVP
B9: K168S (protein)
chain: MADTASKYAVKLRPNFDNPKWVNRHKFMFNFLDINGDGKITLDEIVSKASDDICAKLGATPEQTKRHQDAVEAFFKKIGMDYGKEVEFPAFVDGWKELANYDLKLWSQNKKSLIRDWGEAVFDIFDKDGSGSISLDEWKAYGRISGICSSDEDAEKTFKHCDLDNSGSLDVDEMTRQHLGFWYTLDPNADGLYGNFVP
B10: K168G (protein)
chain: MADTASKYAVKLRPNFDNPKWVNRHKFMFNFLDINGDGKITLDEIVSKASDDICAKLGATPEQTKRHQDAVEAFFKKIGMDYGKEVEFPAFVDGWKELANYDLKLWSQNKKSLIRDWGEAVFDIFDKDGSGSISLDEWKAYGRISGICSSDEDAEKTFKHCDLDNSGGLDVDEMTRQHLGFWYTLDPNADGLYGNFVP
B11: Cyto-obelin: Wild-type Obelin (wt-Obelin) amino acid sequence, SEQ ID NO:4; cytosolic (protein, listed as Obelia longissima)
chain: MSSKYAVKLKTDFDNPRWIKRHKHMFDFLDINGNGKITLDEIVSKASDDICAKLEATPEQTKRHQVCVEAFFRGCGMEYGKEIAFPQFLDGWKQLATSELKKWARNEPTLIREWGDAVFDIFDKDGSGTITLDEWKAYGKISGISPSQEDCEATFRHCDLDNSGDLDVDEMTRQHLGFWYTLDPEADGLYGNGVP

Tests used:
[1] = Calcium EC50 of mitochondrially targeted photoproteins in HEK293T cells without cotransfected GPCR or G protein (Table II); assay type: cell-based; conditions: no cotransfected GPCR or G protein
Description: In an exemplary experiment, HEK293T cells (ATCC-CRL-11268) were transiently co-transfected with 2 μgs of each of pcDNA3.1-H1 (containing the cDNA encoding the H1 histamine receptor) and pcDNA3.1 containing the cDNAs encoding wild type mitochondrial Clytin (referred to as mt-Clytin), modified mitochondrial Clytin having a lysine to aspartic acid mutation at position 168 (referred to as mt-Clytin K168D), modified mitochondrial Clytin having a lysine to glutamic acid mutation at position 168 (referred to as mt-Clytin K168E), wild-type mitochondrial Obelin (referred to as mt-Obelin) or wild type mitochondrial Aequorin (referred to as mt-Aequorin) using the Targefect-293 reagent (TARGETING SYSTEMS). 48 hours later, the cells were detached using Accutase (MILLIPORE), centrifuged, and resuspended in […] in FreeStyle293 media (INVITROGEN), for incubation for 3-4 hours at room temperature in the dark. After incubation, the cells were centrifuged and resuspended in HBSS/HEPES buffer without Ca^2+ at a density of 1×10^6 cells/ml. Next, 100 μl/well of cell suspension for each transfection were added by the use of a Victor2 luminometer plate reader (WALLAC, […]), to a 96-well plate containing 50 μL/well Triton X-100 in MOPS/KCl buffer containing 10 mM EGTA and a series of Ca^2+ concentrations, such that free calcium concentrations ranged from 17 nM to 39.6 μM, followed by for measurement of total bioluminescence at 20 seconds.
(§1) Signal to background ratio was calculated as the signal induced by maximal GIP (1 μM) divided by the signal induced by buffer alone. The EC50 value for calcium was determined as described above for FIG. 2 for mitochondrially targeted photoproteins transfected into HEK293T cells in the absence of a cotransfected GPCR or G protein. Affinity for calcium was correlated with the properties of the amino acid side chain at residue 168 of Clytin.

GIP Receptor = target: T1, GIP Receptor; test: GIP receptor-mediated bioluminescence in HEK293T cells with chimeric promiscuous G protein (FIG. 5, Table II); assay type: cell-based; conditions: for Max signal with GIP (RLU × 10^−5) / EC50: HEK293T cells, GIP Receptor + promiscuous G protein; for EC50: luminescence vs GIP concentration; for % GPCR/total: signal induced by maximal GIP (1 μM) as percentage of signal induced by Triton X-100 with 1 mM Ca^2+; for Signal: background with GIP: signal induced by maximal GIP (1 μM) divided by signal induced by buffer alone
Method: However, coexpression of GIP receptor with a chimeric G protein containing sequences from Gαs and Gαq enable the GIP receptor to stimulate calcium flux.
The results of the dose response curve to varying concentrations of GIP with a subset of the photoproteins are summarized in FIG. 5.
as §1
The EC50 value for receptor-mediated calcium flux induced by the ligand was determined by plotting luminescence (Y-axis) versus ligand concentration applied to the cells (X-axis), and applying a sigmoidal dose-response curve-fitting algorithm (GraphPad Prism). GPCR-mediated signals of the various modified forms of Clytin having an amino acid substitution at position 168 were also related to the nature of the side chain. In addition, the subcellular location of the photoproteins (cytosolic vs mitochondrial) appeared to have an effect on GPCR-mediated signals. […] All of the other mitochondrially targeted mutants except for Clytin K168R and wild-type Clytin yielded results that were in the range of those observed for wt-Aequorin.

| Molecule | EC50 [1] | Max signal with GIP (RLU × 10^−5) (GIP Receptor) | EC50 (GIP Receptor) | % GPCR/total (GIP Receptor) | Signal: background with GIP (GIP Receptor) | Calcium EC50 (nM) [1] |
| --- | --- | --- | --- | --- | --- | --- |
| B1 | 228 nM | 3.84 RLU × 10^−5 | 15.4 nM | 20.3% | 124.1 |  |
| B2 | 174 nM | 4.26 RLU × 10^−5 | 13.4 nM | 22% | 113.4 |  |
| B3 | 232 nM | 5.09 RLU × 10^−5 | 15.1 nM | 19.3% | 146.8 |  |
| B4 | 358 nM | 3.82 RLU × 10^−5 | 21 nM | 10.7% | 115.9 |  |
| B5 | 174 nM |  |  |  |  |  |
| B6 | 176 nM |  |  |  |  |  |
| B7 | 545 nM |  |  |  |  |  |
| B8 |  | 6.47 RLU × 10^−5 | 7.9 nM | 26.2% | 66.4 |  |
| B9 |  |  |  |  |  | calcium affinities comparable to wild-type Aequorin, however, better than wt-Clytin |
| B10 |  |  |  |  |  | calcium affinities comparable to wild-type Aequorin, however, better than wt-Clytin |
| B11 |  | 1.80 RLU × 10^−5 | 9.86 nM | 56.7% | 47 |  |
